For this assay, the target named is T1, FLAG-TBC1D9Bα from a stable HEK293 cell line (human, UniProt Q66K14-1 1-1250).
T1 construct: human TBC1D9B, alpha splice form, in pcDNA3.1-FLAG; also called FLAG-tagged recombinant TBC1D9B; source: purified (anti-FLAG M2 beads, eluted with glycine HCl) for the pull-down; in lysate for the co-IP
The assay is described as follows: pull-down; GST fusion on glutathione-sepharose beads, incubated with recombinant FLAG-TBC1D9B or His-LC3B at 4 °C for 1 hour; 20 mM Tris pH 7.4, 0.1 mM EDTA, 100 mM NaCl; SDS-PAGE with Coomassie Brilliant Blue. The note with it: both partners purified.

T1 sequence (Q66K14 whole entry, canonical isoform): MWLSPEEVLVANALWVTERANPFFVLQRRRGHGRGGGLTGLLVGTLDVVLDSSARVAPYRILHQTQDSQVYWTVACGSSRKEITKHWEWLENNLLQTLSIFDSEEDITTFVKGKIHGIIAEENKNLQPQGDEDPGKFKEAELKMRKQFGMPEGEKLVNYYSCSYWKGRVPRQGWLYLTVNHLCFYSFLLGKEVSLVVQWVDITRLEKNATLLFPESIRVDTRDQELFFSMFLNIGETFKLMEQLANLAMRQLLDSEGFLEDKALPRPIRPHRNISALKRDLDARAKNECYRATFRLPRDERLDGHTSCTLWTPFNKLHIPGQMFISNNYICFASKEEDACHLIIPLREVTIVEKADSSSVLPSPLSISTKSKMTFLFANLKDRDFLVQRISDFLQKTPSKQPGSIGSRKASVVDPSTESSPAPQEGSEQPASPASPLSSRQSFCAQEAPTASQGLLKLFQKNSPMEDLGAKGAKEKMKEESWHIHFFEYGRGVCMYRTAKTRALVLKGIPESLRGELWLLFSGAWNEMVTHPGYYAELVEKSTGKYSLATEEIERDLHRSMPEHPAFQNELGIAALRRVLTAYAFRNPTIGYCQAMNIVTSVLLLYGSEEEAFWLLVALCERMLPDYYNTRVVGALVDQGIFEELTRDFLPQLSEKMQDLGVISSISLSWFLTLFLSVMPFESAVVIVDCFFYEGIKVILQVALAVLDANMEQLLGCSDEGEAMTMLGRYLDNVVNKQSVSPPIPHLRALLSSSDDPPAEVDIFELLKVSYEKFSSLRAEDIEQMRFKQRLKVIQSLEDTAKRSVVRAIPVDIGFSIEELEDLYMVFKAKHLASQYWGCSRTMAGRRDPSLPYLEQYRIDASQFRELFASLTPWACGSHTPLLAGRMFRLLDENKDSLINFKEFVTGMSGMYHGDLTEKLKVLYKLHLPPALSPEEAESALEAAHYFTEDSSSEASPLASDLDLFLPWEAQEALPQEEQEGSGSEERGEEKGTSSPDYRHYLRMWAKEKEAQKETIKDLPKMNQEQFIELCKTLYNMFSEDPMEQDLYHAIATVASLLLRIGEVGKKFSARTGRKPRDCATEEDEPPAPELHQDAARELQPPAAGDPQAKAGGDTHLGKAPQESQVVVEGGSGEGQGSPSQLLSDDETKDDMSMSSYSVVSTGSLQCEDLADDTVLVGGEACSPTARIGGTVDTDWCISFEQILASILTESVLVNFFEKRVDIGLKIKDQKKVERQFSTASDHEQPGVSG

B1: recombinant GST-GABARAP (natural protein, human, UniProt O95166 1-117, looked up)
chain: MKFVYKEEHPFEKRRSEGEKIRKKYPDRVPVIVEKAPKARIGDLDKKKYLVPSDLTVGQFYFLIRKRIHLRAEDALFFFVNNVIPPTSATMGQLYQEHHEEDFFLYIAYSDESVYGL
notes: human GABARAP, cloned into pGEX-6p; also called GST-fused GABARAP; source: E. coli BL21, purified (glutathione-sepharose)
Consider B1, for which the binding result was “binds”.

The record behind these values is PMC6131546, “Interaction of TBC1D9B with Mammalian ATG8 Homologues Regulates Autophagic Flux” (Scientific Reports, 2018).
